# Publication PMC9849103 (Nature Communications, 2023)
# B1: C3111 (antibody, V domains shown)
# VH: EVQLVESGGRVVRPGESLRLSCAASGFNFNDYGMSWVRQVPGKGLEWVSGINWNGAISGYVDSVKGRFIISRDNAKNSLYLQMNSLRAEDTALYHCARAYCGDECYSLLVRGDALDIWGQGTMVTVSS
# VL: QSVLTQPPSVSAAPGQTVTISCSGSSSNIGMNDVSWYQHLPGTAPKLLIYDSHKRPSGIPDRFSGSNSGTSATLGITGLQTGDEAHYYCGAWDSSLSAVVFGGGTMLAVL
# notes: source: 293-6E cells, transfected, purified (Protein G Sepharose)
# B2: C996 (antibody, V domains shown)
# VH: EVQLVESGGGLVQPGGSLRLSCVASGFTSTNYDMHWVRQAPGRGLQWVSSIGTAGDTYYPGSVRGRFTISRENAKNSLDLQMNSLRVGDTAVYYCARGQRGYYDRSGYYWGWRAFDIWGQGTMVTVSS
# VL: SYELTQPPSVSVAPGQTARITCGGNNIGNKSVYWYQQKPGQAPVLVVYDDSGRPSGIPERFSGSNSANTATLTISRVEAGDEADYYCQVWDNNSDQFGGGTKLTVL
# notes: as for B1
# B3: C3057 (antibody, V domains shown)
# VH: QVQLVQSGGGLVQPGGSLRLSCEASGLSVSRNYMRWVRQAPGKGLEWVSLIYSGGSTFYADSVKGRFTISRDNSKNTLYLQMTSLRAEDTAVYYCARDLVDYGMDVWGHGTTVTVSS
# VL: DIQLTQSPSFLSASVGDRVTITCRASQGISNYLAWYQQKPGKAPQLLIYAASTLQSGVPSRFSGSGSGTEFTLTISSLQPEDFATYFCQQLNSDVITFGQGTRLEIK
# notes: as for B1
# B4: C099 (antibody, V domains shown)
# VH: EVQLVESGGGLIQPGGSLRLSCAASGITVSSNYMSWVRQAPGKGLEWVSVMYAGGSTFYADSVKGRFTISRDDSKNTLFLQMNSLRAEDTAIYYCARDLYSSGGTDIWGQGTMVTVSS
# VL: EIVLTQSPGTLSLSPGERATLSCRASQSIGSSYLAWYQQKPGLAPRLLIYGASRRATGIPDKFSGSGSGADFTLTISRLEPEDFAVYYCQQYGSSPGTFGQGTKVEIK
# notes: as for B1
# B5: C1002 (antibody, V domains shown)
# VH: EVQLVESGGGLVQPGGSLRLSCAASEFIVSSNYMTWVRQAPGKGLEWVSIMYPGGSTFYADSVKGRFTISRDNSKNTLYLQINRLRAEDTAVYYCARDIAGRLDYWGQGTLVTVSS
# VL: DIQMTQSPSSLSASVGDRVTITCQASQDINNYLNWYQQKPGKAPKLLIYDASNLETGVPSRFSGSGSGTDFSFTISSLQPEDIATYYCQQYDNLSRLTFGGGTKVEIK
# notes: as for B1
# B6: C971 (antibody, V domains shown)
# VH: EVQLVESGGGLVKPGGSLRLSCAASGFTFNNAWMTWVRQAPGKGLEWVGRIKSKTDGGTTDYGTPAKGRFTISRDDSKNTLYLQMKSLRTEDTAVYYCTTVDVQGIWELLENDAFDIWGQGTMVTVSS
# VL: EIVLTQSPGTLSLSPGERATLSCRATQAISSTYLAWYQQKPGQAPRLLIYGAFSRAPGIPDRFSGSGSETDFTLTISRLEPEDFAVYYCQQSDRSPFTFGPGTKVDIK
# notes: as for B1
# B7: C2588 (antibody, V domains shown)
# VH: QVQLVQSGAEVKKPGSSVKVSCKASGDTFNIYAINWVRQAPGQGLEWMGRIIPRFGMANYAQKFQGRVTMTADKSTSTAYMDLISLKSEDTAVYYCATSAYLSGSGHYFDYWGQGTLVTVSS
# VL: EIVLTQSPATLSLSPGERATLSCRASQSVGGSFLAWYQQKPGQAPRLLIYGASSRATGIPDRFSGSGSGTDFTLTISRLEPEDFAVYFCQQYASSRTFGQGTKVEIK
# notes: as for B1
# B8: C118 (antibody, V domains shown)
# VH: QVQLVESGGGVVQPGRSLRLSCAASGFTFSNYAMHWVRQAPGKGLEWVAVISYDGSNKYYADSVKGRFTISRDNSKNTLYLQMNSLRAEDTAIYYCASGYTGYDYFVRGDYYGLDVWGQGTTVTVSS
# VL: QPVLTQSPSASASLGASVKLTCTLSSGHSSYAIAWHQQQPEKGPRYLMKLNTDGSHSKGDGIPDRFSGSSSGAERYLTISSLQSEDEADYYCQTWGTGILVFGGGTKLTVL
# notes: as for B1
# B9: C1068 (antibody, V domains shown)
# VH: QVQLVESGGGVVQPGRSLRLSCAASGFTFSTFAMHWVRQAPGKGLEWVAVTSYDGSNKYYADSVKGRFTISRDNSKNTLYLQMNSLRAEDTAVYYCARGLLWFGESEYFQHWGQGTLVTVSS
# VL: not shown
# notes: as for B1
# B10: C022 (antibody, V domains shown)
# VH: QVQLQESGPGLVKPSETLSVTCTVSGGSISSSRYYWGWIRQPPGKGLEWIGSIYYSGSTYYNPSLKSRVTISVDTSKNQFSLKLSSVTAADTAVYYCARHAAAYYDRSGYYFIEYFQHWGQGTLVTVSS
# VL: DIQMTQSPSTLSASVGDSVTITCRASQSISSWLAWYQQKPGKAPKLLIYKASSLESGVPSRFSGSGSGTEFTLTISSLQPDDFATYYCQQYNNYRYTFGQGTKLEIK
# notes: as for B1
# B11: C986 (antibody, V domains shown)
# VH: EVQLVQSGAEVKKPGETLKISCKGSGDSFSNYWIGWVRQSPGKGLEWMAIVYPGDSDARYSPSFQGQVTISADKSVTTAYLKWSSLKASDTAIYYCVRGLPVDWYFDLWGRGTLVTVSS
# VL: QSVLTQPPSVSGAPEQRVTISCTGSSSNIGAGHDVHWYQQLPGTAPKLLIYNNNNRPSGVPDRFSGSKSGASASLAISGLQAEDEAEYYCQSYDKSLSVLYVLGTGTKVTV
# notes: as for B1
# B12: C3060 (antibody, V domains shown)
# VH: QVQLQESGPGLLKPSQTLSLICTVSGGSISSGDYYWNWIRQTPGKGLEWIGYIYYSGITYYNPSLKSRLSISLDTPKNQFSLKLTSVTAADTAVYYCATGPPTVTTENFDNWGQGTLVTVSS
# VL: QSVLTQPPSVSAAPGQKVTISCSGSSSNIGNYYVSWYQQLPGTAPQLVIYDNNKRPSGIPDRFSGSKSGTSATLAITGLQTGDEADYYCGTWDASLNAGVFGGGTRLTVL
# notes: as for B1
# B13: C963 (antibody, V domains shown)
# VH: QVQLVQSGAEVKKPGSSVRVSCKASGGTFSSFTITWVRQAPGQGLEWMGRIIPNLNIPNYAQRFQGRITITAEKSTSTAYLELSSLRSEDTAVYYCARGVGYSGSGSNWYFDLWGRGTLVTVSS
# VL: QSVLTQPPSVSGAPGQRVTISCTGSSSNIGAGYDVHWYQQLPGTAPKLLISGHINRPSGVPDRFSGSTSGTSASLAITGLQAEDEADYYCQSYDSSLSDSVFGGGTKLTV
# notes: as for B1
# B14: C978 (antibody, V domains shown)
# VH: QVQLVQSGAEVKKPGSSVKVSCKASGATFSNYIISWVRQAPGQGLEWMGRTIPLLDIANYAQKFQGRVTITADKSTRIVYMHLGSLTSEDTAVYYCATGKGYSSSSAAYYFDHWGQGTLVTVSS
# VL: QSVLTQPPSVSGAPGQRVTISCTGTNSNIGAGYDIHWYQQLPGTAPKLLIYGSNNRPSGVPDRFSGSKSGTSASLAITGLQAEDEADYYCQSYDSSLSGSEVFGGGTKLTVL
# notes: as for B1
# B15: C2593 (antibody, V domains shown)
# VH: QVQLVQSGAEVKKPGSSVKVSCKASGGTFNSYAITWVRQAPGQGLEWMGGIIFIFDTANYAQKFQGRVTITADESTSTVYMELSSLRSEDTAVYYCARPGAELRDHYYYYGMDVWGQGTTVTVSS
# VL: DIVMTQSPLSLPVTPGEPASISCRSTQSLLHSNGNNYLDWYLQKPGQSPQLLIYLASNRAPGVPDRFSGSGSGTDFTLRISRVEAEDVGVYYCMQALQTPPTFGQGTRLEIK
# notes: as for B1
# B16: C1040 (antibody, V domains shown)
# VH: QVQLVESGGGVVQPGRSLRLSCAASGFSFINYNMHWVRQAPGKGLEWVAVIWYDGSNKYYADSVKGRFTISRDNSKNTLYLQMNSLRVEDTAVYYCARDPAITEAEIDYWGQGTLVTVSS
# VL: DVVMTQSPLSLPVTLGQAASISCRSSQSLVHSDGNTYLNWFQQRPGQSPRRLIYRVSNRDSGVPDRFSASGSGTDFTLKISRVEAEDVGVYYCMQGTHWPWTFGQGTKVEIK
# notes: as for B1
# B17: C3083 (antibody, V domains shown)
# VH: EVQLVESGGGFVRPGGSLRLSCSTSGFTFSMFAMHWVRQAPGKGLEYVSGVSSNGLNTYYADSVKGRLVISRDDSKNTLYLQMTGLRVEDTAVYYCVKDDDFGDPGYGYHLDYWGQGTLVTVSS
# VL: QSALTQPASVSGSPGQSITISCTGTSSDVGGYNYVSWFQQHPGKAPKLVIFEVSNRPSGISDRFSGSKSGNTASLTISELQAEDEADYYCSSYTSRIPIIFGTGTKVTV
# notes: as for B1
# B18: C3054 (antibody, V domains shown)
# VH: EVQLVESGGGLGQPGGSLRLSCVASGFSFSTYSMNWVRQAPGKGLEWLSYINAGSTTIYSADSVTGRFSISRDNAKNSLYLHMNSLRADDTAVYYCARGVPFDYWGQGTLVTVSS
# VL: DIVMTQTPLSLPVTPGEPASISCRSSRSLLDSDDADTYLDWYLQKPGQSPQLLIYTLSYRASGVPDRFSGSGSGTDFTLKISRVEAEDVGVYYCMQRIQFPWTFGQGTKVEIK
# notes: as for B1
# B19: C1047 (antibody, V domains shown)
# VH: EVQLVQSGAEVKKPGESLKISCKGSGYSFISYWIVWVRQMPGKGLEWIGIIYPGDSDTIYSPSFQGQVTLSADKSISTAYLQWSSLKASDTAIYYCAKMVTSGTSYYETRGYASSGPFDNWGQGTLVTVSS
# VL: DIQLTQSPSSLSASVGDRVTITCRASQGISSALAWYQQKPGKAPKLLIYDASSLESGVPSRFSGSGSGTDFTLTISSLQPEDFATYYCQQSDNFGPGTKVDI
# notes: as for B1
# B20: C3123 (antibody, V domains shown)
# VH: QVQLQESGPGLVKPSQTLSLTCAVSGDSVSRGGFYWTWIRQLPGMGLECIGYIDYSGSTHYNPSLKSRVTISLDTSNNQFSLKMTSVTAADTALYYCARGAVPGIGWFDPWGQGTLVTVSS
# VL: SYELTQPPSVSVAPGKTASISCGGNNIATKSVHWYQQKPGQAPALVIYYDSDRPSGIPERFSGSNSGNTATLTISRVEAGDEAAYYCQVWESSGDHVVFGGGTKLTVL
# notes: as for B1
# B21: C1049 (antibody, V domains shown)
# VH: EVQLVQSGAEVKKPGESLKISCKSSGYSFISHWIGWVRQMPGKGLEWMGIIWPGDSDTRYSPSFQGQVTISVDKSITTVYLQWSSLKAADTAMYYCARRGSSWEVDYWGQGTLVTVSS
# VL: not shown
# notes: as for B1
# B22: C080 (antibody, V domains shown)
# VH: EVQLVQSGAEVKKPGESLNISCKASGYSFTIYWIAWVRQLPGKGLEWMGIIYPGDSDTRYSPSFQGQVTISADKSISTAYLQWRSLKASDSAVYYCARGVAVDWYFDLWGRGTLVTVSS
# VL: QSVLTQPPSVSGAPGQRVTISCAGSSSNIGAGFDVYWYQQLPGTAPKLLIYGNNNRPSGVPDRFSGSKSGTSASLAITGLQAEDEADYYCQSSGSVLSDLYVFGTGTKVTVL
# notes: as for B1
# Target: WT RBD (SARS-CoV-2 Wuhan-Hu-1 spike receptor binding domain) (SARS-CoV-2 (Wuhan-Hu-1), UniProt P0DTC2)
# Experiment: BLI
# Conditions: both partners purified
row,Binder,Kd
1,B1,0.236 nM
2,B2,3.72 nM
3,B3,2.08 nM
4,B4,0.00214 nM
5,B5,0.441 nM
6,B6,0.949 nM
7,B7,1.47 nM
8,B8,2.66 nM
9,B9,28.8 nM
10,B10,3.15 nM
11,B11,0.472 nM
12,B12,1.1 nM
13,B13,0.653 nM
14,B14,1.33 nM
15,B15,1.37 nM
16,B16,2.08 nM
17,B17,0.201 nM
18,B18,2.49 nM
19,B19,4.99 nM
20,B20,1.57 nM
21,B21,2.35 nM
22,B22,0.286 nM
